Data on two substances can be found in US20160152686A1.

The target in assay [1] is human serum albumin (human) (UniProt P02768). In words: SPR, affinity to HSA. A general note: In SPR one partner is held on a chip, and binding of the other changes the refractive index at the surface.
Assay [2] deals with VEGFR2 as engaged in the VEGF hBa/F3 proliferation assay. In words: cell-based or functional assay.

Sequence of human serum albumin (human) (P02768 25-609): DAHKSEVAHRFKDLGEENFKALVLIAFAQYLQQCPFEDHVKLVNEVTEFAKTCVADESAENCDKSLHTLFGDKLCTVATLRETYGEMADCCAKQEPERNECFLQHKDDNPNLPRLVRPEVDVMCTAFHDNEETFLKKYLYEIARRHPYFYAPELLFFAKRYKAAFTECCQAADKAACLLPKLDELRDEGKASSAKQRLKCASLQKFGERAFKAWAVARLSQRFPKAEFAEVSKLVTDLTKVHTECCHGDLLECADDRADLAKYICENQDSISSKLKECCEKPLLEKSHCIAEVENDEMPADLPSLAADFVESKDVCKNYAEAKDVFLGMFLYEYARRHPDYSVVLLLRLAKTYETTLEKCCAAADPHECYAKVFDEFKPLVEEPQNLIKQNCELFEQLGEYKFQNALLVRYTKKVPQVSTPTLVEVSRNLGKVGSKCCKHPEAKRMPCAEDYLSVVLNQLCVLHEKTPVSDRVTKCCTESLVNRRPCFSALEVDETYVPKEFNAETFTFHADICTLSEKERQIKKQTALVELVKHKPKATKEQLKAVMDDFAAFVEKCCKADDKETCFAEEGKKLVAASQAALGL

The term Kd denotes the concentration at which binding is half-saturated. A higher Kd goes with lower affinity. Turning to ABD (alone; column 'ABD' of Table 6), the Kd in assay [1] is 1.6 to 2.6 nM.

In the case of “CT-322 (C7FL lacking the 8 N-terminal amino acids and linked to PEG) (designed binder)”, in assay [2], the IC50, VEGF hBa/F3 proliferation assay is 7.53; the IC50, VEGF hBa/F3 proliferation assay, with HSA amounted to 8.85; the Rel Pot (C7FL), VEGF hBa/F3 proliferation assay was found to be 0.62; the Rel Pot (C7FL), VEGF hBa/F3 proliferation assay, with HSA was 0.53.
